Assay: soluble on expression in E. coli; label from the status in PepcDB or PDB records

Row | Sequence | soluble on expression in E. coli
1 | SLEEPPKAVELEGLAACEGEYSQKYSTMSPLGSGAFGFVWTAVDKEKNKEVVVKFIKKEKVLEDCWIEDPKLGKVTLEIAILSRVEHANIIKVLDIFENQGFFQLVMEKHGSGLDLFAFIDRHPRLDEPLASYIFRQLVSAVGYLRLKDIIHRDIKDENIVIAEDFTIKLIDFGSAAYLERGKLFYTFCGTIEYCAPEVLMGNPYRGPELEMWSLGVTLYTLVFEENPFCELEETVEAAIHPPYLVSKELMSLVSGLLQPVPERRTTLEKLVTDPWVTQPVNLADYTWEEVCRVNKPESGVLSAASLEMGNRSLSDVAQAQELCGG | not soluble
2 | MLMSIREDVVEATSSIVPEKIHSDARNFSLVTSSSQVRSPLYLKSLDADGEDNSTVEKQITHSKKVADTELDRSLECLKENENDVKTNGEVELSAVEDALIQVVPEVSENQNPRKIGPYDFDQHANFLNS | not soluble
3 | MKNLENYFDKAELQHFFECLTDDDNTPQASVFFRLAAFTGMRKSEMLCLEWSDIDFSNHTIRVNKTQSRGDGARLLVQAPKTARSNRTVYLDPTTIKILQHWQVDQKKWLLRFGFNINQGNHYVFANENNEMFQPSKPRKWLEHTLTKYDLKHVTVHAFRHTYATLAFEAHASIKSVQDQLGHSSYRTTLDIYTAVTAKQKNEATEKLANYLNFLEHHHHHH | not soluble
4 | MSLRLSLLSSTSKYKVTVAEVQRRLSPPECLNASLLGGVLRRAKSKNGGRSLREKLDKIGLNLPAGRRKAAHVTLLTSLVEGEAVHLARDFAYVCEAEFPSKPVAEYLTRPHLGGRNEMAARKNMLLAAQQLCKEFTELLSQDRTPHGTSRLAPVLETNIQNCLSHFSLITHGFGSQAICAAVSALQNYIKEALIVIDKSYMNPGDQSPADSNKTLEKMEKHREGHHHHHH | not soluble
5 | MRSDGRKEDQLRPVSIQRDFLEYPEGSCLISFGKTKVICTASVIENVPNWLKGKGQGWITAEYSMLPRATQQRTIRESVQGRIGGRTHEIQRMIGRAMRTAVELTKIGERTIWVDCDVIQADGGARTAAITGAFVAVADAIIKLHKEGIIEETPIKDFVAAVSVGIVNDRILLDLNFEEDSAAQVDMNVVGTGSGRLSEVHTMGEEYSFTKDELIKMLDLAQKGINELIELQKKLYVIQDGKWERSELKEVSSTT | soluble
6 | MALQLGRLSSGPCWLVARGGCGGPRAWSQCGGGGLRAWSQRSAAGRVCRPPGPAGTEQSRGLGHGSTSRGGPWVGTGLAAALAGLVGLATAAFGHVQRAEMLPKTSGTRATSLGRPEEEEDELAHRCSSFMAPPVTDLGELRRRPGDMKTKMELLILETQAQVCQALAQVDGGANFSVDRWERKEGGGGISCVLQDGCVFEKAGVSISVVHGNLSEEAAKQMRSRGKVLKTKDGKLPFCAMGVSSVIHPKNPHAPTIHFNYRYFEVEEADGNKQWWFGGGCDLTPTYLNQEDAVHFHRTLKEACDQHGPDLYPKFKKWCDDYFFIAHRGERRGIGGIFFDDLDSPSKEEVFRFVQSCARAVVPSYIPLVKKHCDDSFTPQEKLWQQLRRGRYVEFNLLYDRGTKFGLFTPGSRIESILMSLPLTARWEYMHSPSENSKEAEILEVLRHPRDWVR | not soluble
7 | MGSDKIHHHHHHMIVGGLWMHLNEGSTPMDKYIEITAQKSRMYLLPDSSKVWMQPGSSIRFAEDFKKHRNVWLKGNSLFEVHKNMGRKFRVYIDKAFIEVKGTCFLIKQNNPSANEITLFNGSIEFNVESTQHKIEMKPLQELVYNPADAGTQLRQIENIEWQNGRYNFTQFNLEHLTRIINQMYGSRIIISDKVNKNCAFTGSIRYDESLEDVIDKICFSLNLRKKEINHEIIIYN | not soluble
8 | DDFLTLDACKIALKEMKKGFDLLCFDAFVHRVKTKQFYRFKQDEFFNQKEFLEFLSKQRHFCWSVWAKCFRKDIILKSFEKIKIDERLSYGEDVLFCYVYFMFCEKIAVFKTCIYHYEFNPNGRYENKNKEILWQNYQDKKKSNELVKKLCLNFKNNDFHKKLFEVLEKEEFDLQRRVDEARN | not soluble
9 | MAHHHHHHMGTLEAQTQGPGSMTYETILVERDQRVGIITLNRPQALNALNSQVMNEVTSAATELDDDPDIGAIIITGSAKAFAAGADIKEMADLTFADAFTADFFATWGKLAAVRTPTIAAVAGYALGGGCELAMMCDVLIAADTAKFGQPEIKLGVLPGMGGSQRLTRAIGKAKAMDLILTGRTMDAAEAERSGLVSRVVPADDLLTEARATATTISQMSASAARMAKEAVNRAFESSLSEGLLYERRLFHSAFATEDQSEGMAAFIEKRAPQFTHR | soluble
10 | MPLVSMKEMLIDAKENGYAVGQYNINNLEFTQAILEASQEENAPVILGVSEGAARYMSGFYTIVKMVEGLMHDLNITIPVAIHLDHGSSFEKCKEAIDAGFTSVMIDASHSPFEENVATTKKVVEYAHEKGVSVEAELGTVGGQEDDVVADGIIYADPKECQELVEKTGIDALAPALGSVHGPYKGEPKLGFKEMEEIGLSTGLPLVLHGGTGIPTKDIQKAIPFGTAKINVNTENQIASAKAVRDVLNNDKEVYDPRKYLGPAREAIKETVKGKIKEFGTSNRAK | not soluble
11 | MGEIQTLNEQHSVGKPVIRLSGISKSFDGKEIIGNLNLDVNHGEFLTILGPSGCGKTTVLRMIAGFETADQGQILLDDQDVTQVPAEQRHVNTVFQSYALFPHMTVFENVAFGLRMQKVPQSEIEPRVMEALRMVRLAEMAQRKPHQLSGGQQQRIAIARAVVNKPKVLLLDESLSALDYKLRKQMQSELKQLQRQLGITFIFVTHDQEEALSMSDRIIVMRSGKIEQDGSPREIYEDPKNLFVARFIGEINVFQATTIDRIDEKRIRVDIEGIESIVYYEDEVKAGDKLQVLLRPEDLRIEEIKESEEKGIVGHVTDRTYKGMTLESVVELESGMCVMVSEFFNEDDPDVDHSIGQKVAVTWVESWEVVLNDEQKA | not soluble
12 | MGSDKIHHHHHHMSVSIIDRLQAIFQDVRVSEFMNPDVIYVTPDKTLLHVKEIMRIKRISGVPVVDDKKRVVGIVSLEDIIKALEGSYIKDSVEKRMTKNVVCLKETDTLQDAVKTFEKYGYGRFPVVDDEGKLVGIVTKHDIIYFLLAKLGIMYLHDKRMEEVLEKGTSLITGEVLEKGKADFVFHIDYFDVNMIGIGASKLKRFLLERGVDEELARRIAIATYEAEANVVIHSESDGYIYCFIDNEKITVRVEDRGKGIENLELAMREGYSTAPDHIRELGFGAGMGLPNMKRYSDKMVIISEVGKGVIVEMVFFRRDRGEDKGDSGKTGA | not soluble
13 | MAHHHHHHMGAEHSTGMTKVLMPQFSTKRQTGPFLSPVERVTASGQSVVIECGDGVSRVDDGTAVVELFALDSKATEEDAMVEAFGEFAITKDDLIGRTRSSLKRGRVEEDEDLPCYFLAPRRRSCSVGGHNSADADSVLASPSRWGAVETDADGAMWRLLQEYDELLCVEAIGDATEDLYCYPDHRKDDEFDSNAEDFSGNDYPDDADERSGESAERAEEEASGFSTERRGGRVASHSTYGMFCEEGYSERSLSSVWNSDG | soluble
14 | KILLEPTKVSFWGILRTPFMEQFGNGITPFSVGGQPMQILGLRQAGVSLGEGSSVSLMK | not soluble
15 | MGSDKIHHHHHHMKRTYESGDKMIHTRGKAEGLREKLATILSQDYKELAVQDLKVIGTGVQNIVFRGDSEKGALAFRVPWEREVENINEDLFNSRISLQKEAELSKYCHSKGISVPRIHGLHLSAELDFLISDCVYTDHMPISAHKIGELVSKLHSMPIDDLHYEQNIREPISKYIAERIVKRIEGFNTITNCGMKLPDTKTIEHILSTADHEKSLLHMDIRPANLIGYNGEVKAIVDWDNALIGHPLLELMRIAETNEVSWEEFKDGYKNDSIFNATSHIVSLFYRLDTAVMLANLFIAHLKIEDKGVFYKERVKAIHHEIYKSL | not soluble
16 | MAHHHHHHMLYLKEIELGNYYICNLNDYPSEHCVVDYDPNKRIKFLCPIVHNEGEHMNTYNSSYCFTYEGIKDRLIIRNNEEPIYTTLPGIILENQILYDRYNLGIYIMPFKLEADMSIVCVCDTKKEYKGITPYIKINIKNSNNVLGVGSSDEYIKGCDFGNNKGKHQFLTSPQSHEHRSVCAILANPGDIVGINCINYNEDDPQNNDVTLEPSNCFSTVSFSLYTFSFVKMNINNILPDAKYYPETSAFPKDPNFKKFSTTSYLWIPANVPQAFFLVCSCKYAKGEGTAMYHVSSSTLEV | not soluble
17 | TKTTTQGAKSGVFDTVDEAVQAAVIAQNCYKEKSLEERRNVVKAIREALYPEIETIATRAVAETGMGNVTDKILKNTLAIEKTPGVEDLYTEVATGDNGMTLYELSPYGVIGAVAPSTNPTETLICNSIGMLAAGNAVFYSPHPGAKNISLWLIEKLNTIVRDSCGIDNLIVTVAKPSIQAAQEMMNHPKVPLLVITGGPGVVLQAMQSGKKVIGAGAGNPPSIVDETANIEKAAADIVDGASFDHNILCIAE | not soluble
18 | MLKPKEINTENKSKKRIYLSSPHMSDEGYEKQYINEAFETNWIAPLGKNVDEFEKELAAKVGIKAAAALSSGTAAIHMALKAAGVGEGDIVFCPTLTFAATANPIIYQNAIPVFIDSDYETWNMSPEALEEAFKKYPKVKAVLVVHLYGLSADMDKIVEICKKHDVQLIEDAAESLGTTYKGRYTGTIGDYGIYSFNGNKIITTSGGGMLVSDNEERIAKVRFWATQARDNARHYQHSELGYNYRMSNVIAGIGRGQLKVLDQRIEKKRYIFDFYKRELGCIDEIDFMPVNDWNKPNCWLTCITLTGKVRPLDVIIRLEEENIESRPVWKPMHMQPFYQHYDYIGSNVSEKIFENGVCLPSDTKMTDEDLYRVVNIIKGLWK | not soluble
19 | MSLSFFAHFSPLSGHQKQAAHQILPHLFLGSAAAARSATWLQQNRITHIVCVHNAEVSPHELKRQLTISHPAGDTRATSHHHRQQTVAGQLVVHPDRCVYCCCYVQDTPQQVFLPVLFPVMDFIDNAIRDQSFRGGSPSGAPHGNVLVHCAKGISRSASLVICYLMFRRCWSYADSFTYIRRKRPIYPNVGFQASILTQLLETQELVENMFSQSEGHHHHHH | not soluble
20 | MSLIYTLTLNPSVDYKIVLKEFQEESLNYALNNNFFAGGKGINVSTVLKNLGKPSTALGFLGGFTGDYIRFSLDSRGIKNDFIKIKYDTRLNIKMIANGRETEINANSPDISENEFELLKNKLKNLANNSTLVMSGSVPAALGEDAYNEIANSISNDVKLIIDTSGKPLRKILRLNPFLIKPNIYELEDLFNAKFDSTKELIKIGKNLVESGVQNIIISMGSDGAIFIGGKNVAFRAFVPKINFVSTIGAGDSVIAGFVYAFDNGSTLEDSFKFGVAAGTATALKGNLCEFQDVKKMLCQIRVEDIYTSEGHHHHHH | soluble
21 | MGSDKIHHHHHHMDKFKTIALFMSTIETGSFSATAKKHATDPSTVSKAIKRLEEQLGLQLLYRSTRQLSLTSAGQKYADTVGSLYQQLESCEHELKSANNSYSGALKINLPVSYGRVYMLPMLSRFKKAYPDIELEVSFNDQYVDMISDAVDVSIRSGTLNDSRLVAQKLSPMAFVICASSDLLATRKVDISNEGLVALPWVLFRFKQTGKTMPINFSYQGCHIDIEPKKVTIVDDGETMAQMCAEGLGLSLMPHFNAKALVVAGKMKVVAILDEFPSSGVFIVYPKRKDLPRRTQVFIEFVKDYLKEIGETPSKTWLDTSINSS | not soluble
22 | MDAEEIRAIFRFSAMEKNMIYSFGIQGDLFLPFLLSLKSGGSWSYATEETKSIAVKDVITYYDEESKTGYTLEKIYFFIDPEVVAKEGVVRRLEKCGTKEERELVERPYIIALRAKRIIFAEVNPGSRKITVRELEKKCIQLKGTPAYSAAHELEHLKKGEVEGIPLWSFEYVKDQ | not soluble
